PMC8291764

Key:
Kohinoor = test: SEC; purified protein diluted to 10 μM, equilibrated at 6 °C overnight; 250 μL on Superdex 200 Increase 10/300 GL, run at 6 °C, 0.75 mL/min, absorption at 280 nm; elution volumes compared with tetrameric DsRed, dimeric dTomato and monomeric mEGFP
Padron = test: as above

| Substance | stoichiometry N (Kohinoor) | stoichiometry N (Padron) |
| --- | --- | --- |
| Kohinoor | 2 |  |
| Padron |  | 4 |
